Reference: patent publication US20040009913A1, “Use of serum response factor (srf) modulator for treating srf related diseases” (priority 2000, published 2004)

Experiments:
[1] = test system: monolayer ES cells; assay: In vitro differentiation of monolayer ES cells, RT-PCR of differentiation marker genes; format: cell-based, mouse; conditions: SRF-containing (Srf(−/+)) ES cells in monolayer, LIF withdrawal plus agent
Experimental: In vitro differentiation conditions. For differentiation experiments, cells were seeded in monolayers on gelatin-coated dishes and kept overnight in complete medium. The first day after seeding was defined to be day 0 of differentiation. The medium was then exchanged by complete medium lacking LIF or complete medium without LIF, but containing either 0.8% dimethylsulfoxide (DMSO) or 5×10^−7 M all-trans RA, respectively. Medium was exchanged daily and cells were harvested at the indicated time points for RT-PCR analysis. The vitality was determined by trypan blue staining. The vitality of detached cells was less than 5%.
Total RNA preparation (RNeasy kit, QUIAGEN) and first strand cDNA synthesis (Superscript II, Gibco) were done according to the manufacturers protocols. 1 μg of total RNA treated with DNAse I was used for reverse transcription. […] For quantitative analysis, SYBR Green PCR technology was used (Perkin Elmer). Real time detection of the PCR product was monitored by measuring the increase in fluorescence caused by the binding of SYBR Green to double-stranded DNA with ABI PRISM 7700 Sequence Detector. In order to do relative quantification, a threshold cycle (Ct), the cycle at which a statistically significant increase in fluorescence occurs, was derived from the resulting PCR profiles of each sample. […] The relative quantitation value is expressed as […]. […]

[2] = test system: Srf(−/−) ES cells; assay: F-actin / stress fiber immunofluorescence and cell morphology after transient transfection of ES cells; format: cell-based, mouse
Experimental: Alternatively, the cells were grown on gelatine-coated coverslips in complete growth medium for 48 hours, or as EBs in droplets for up to 8 days. The samples were then fixed in 4% formaldehyde and permeabilized in 0.2% Triton-X 100. Non-specific binding was blocked by incubating the cells for one hour in 1% BSA in PBS at 37° C. before staining with primary antibodies for 1 hour at 37° C. Incubation with fluorescence conjugated secondary antibodies (Molecular Probes, 1:200 in 0.2% BSA) was performed for 30 min at 37° C. To visualize filamentous actin, 1 unit Oregon-green phalloidin was included into the mixture. Coverstips were washed four times with PBS, once in water, air-dried and mounted in Moviol. Image acquisition was done with LSM 510 (Zeiss).
(C) SRF-VP16 expression leads to increased stress fiber formation. […] ES cells were transiently transfected with SRF-VP16 (upper panel) and the SRF-M-VP16 control construct (lower panel) and processed for immunofluorescence analysis three days later. […]
SRF-VP16 fusion proteins were previously used to drive SRF-dependent transcription independent of upstream signalling cascades (Hines et al., 1999; Johansen and Prywes, 1994;Treisman et al., 1992). […] Undifferentiated ES cells were transiently transfected with SRF-VP16 and SRF M-VP16 expression vectors, and RNA expression levels were measured by quantitative RT-PCR (FIG. 17B). […]

`C[S+](C)[O-]` [DMSO, dimethylsulfoxide] was tested. Which “timing of mesodermal marker gene induction versus LIF withdrawal alone” value [1] did it give?
The value was “earlier induction”.

B1: wildtype SRF protein: wildtype serum response factor reintroduced by expression vector (protein, UniProt P11831 1-508, looked up)
Serum response factor: MLPTQAGAAAALGRGSALGGSLNRTPTGRPGGGGGTRGANGGRVPGNGAGLGPGRLEREAAAAAATTPAPTAGALYSGSEGDSESGEEEELGAERRGLKRSLSEMEIGMVVGGPEASAAATGGYGPVSGAVSGAKPGKKTRGRVKIKMEFIDNKLRRYTTFSKRKTGIMKKAYELSTLTGTQVLLLVASETGHVYTFATRKLQPMITSETGKALIQTCLNSPDSPPRSDPTTDQRMSATGFEETDLTYQVSESDSSGETKDTLKPAFTVTNLPGTTSTIQTAPSTSTTMQVSSGPSFPITNYLAPVSASVSPSAVSSANGTVLKSTGSGPVSSGGLMQLPTSFTLMPGGAVAQQVPVQAIQVHQAPQQASPSRDSSTDLTQTSSSGTVTLPATIMTSSVPTTVGGHMMYPSPHAVMYAPTSGLGDGSLTVLNAFSQAPSTMQVSHSQVQEPGGVPQVFLTASSGTVQIPVSAVQLHQMAVIGQQAGSSSNLTELQVVNLDTAHSTKSE
Which “effects on gene expression and cytoskeletal rearrangements” value ([2]; reintroduction by transient transfection) does the source give for B1 here?
The value was “only minor effects”.

B2: zyxin: focal adhesion protein transiently overexpressed in Srf(−/−) ES cells (protein, UniProt Q15942 2-572, looked up)
Zyxin: AAPRPSPAISVSVSAPAFYAPQKKFGPVVAPKPKVNPFRPGDSEPPPAPGAQRAQMGRVGEIPPPPPEDFPLPPPPLAGDGDDAEGALGGAFPPPPPPIEESFPPAPLEEEIFPSPPPPPEEEGGPEAPIPPPPQPREKVSSIDLEIDSLSSLLDDMTKNDPFKARVSSGYVPPPVATPFSSKSSTKPAAGGTAPLPPWKSPSSSQPLPQVPAPAQSQTQFHVQPQPQPKPQVQLHVQSQTQPVSLANTQPRGPPASSPAPAPKFSPVTPKFTPVASKFSPGAPGGSGSQPNQKLGHPEALSAGTGSPQPPSFTYAQQREKPRVQEKQHPVPPPAQNQNQVRSPGAPGPLTLKEVEELEQLTQQLMQDMEHPQRQNVAVNELCGRCHQPLARAQPAVRALGQLFHIACFTCHQCAQQLQGQQFYSLEGAPYCEGCYTDTLEKCNTCGEPITDRMLRATGKAYHPHCFTCVVCARPLEGTSFIVDQANRPHCVPDYHKQYAPRCSVCSEPIMPEPGRDETVRVVALDKNFHMKCYKCEDCGKPLSIEADDNGCFPLDGHVLCRKCHTARAQT
How did the “rescue of defective actin cytoskeleton” value ([2]; transient overexpression in Srf(−/−) ES cells) turn out when B2 was run?
The value was “did not rescue the defective actin cytoskeleton”.
